Laboratory results taken from patent US20210388087A1 (Chugai, published 2021).

T1: Human CD3eg linker (human)
T1 construct: Single chain: epsilon and gamma subunits of human CD3 joined by a 29-mer linker, Flag-tag at the C-terminus; also called recombinant human CD3
T1 chain: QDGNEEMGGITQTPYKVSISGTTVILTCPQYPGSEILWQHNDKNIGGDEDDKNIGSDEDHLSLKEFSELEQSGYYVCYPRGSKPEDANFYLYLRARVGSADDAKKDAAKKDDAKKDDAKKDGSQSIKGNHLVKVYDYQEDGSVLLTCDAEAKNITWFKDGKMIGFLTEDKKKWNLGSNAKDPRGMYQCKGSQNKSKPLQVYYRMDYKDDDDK

B1: H183/L072 VH K52bQ (antibody, name in Kabat numbering, V domains shown)
VH: QVQLVESGGGLVQPGRSLRLSCAASGFTFSNAWMHWVRQAPGKGLEWVAQIKDQGNAYAAYYAPSVKGRFTISRDDSKNSIYLQMNSLKTEDTAVYYCHYVHYASASTVLPAFGVDAWGQGTTVTVSS
VL: DIVMTQSPLSLPVTPGEPASISCQASQELVHMNRNTYLHWYQQKPGQAPRLLIYKVSNRFPGVPDRFSGSGSGTDFTLKISRVEAEDVGVYYCAQGTSVPFTFGQGTKLEIK
B2: H183/L072 VH K52bR (antibody, name in Kabat numbering, V domains shown)
VH: QVQLVESGGGLVQPGRSLRLSCAASGFTFSNAWMHWVRQAPGKGLEWVAQIKDRGNAYAAYYAPSVKGRFTISRDDSKNSIYLQMNSLKTEDTAVYYCHYVHYASASTVLPAFGVDAWGQGTTVTVSS
VL: DIVMTQSPLSLPVTPGEPASISCQASQELVHMNRNTYLHWYQQKPGQAPRLLIYKVSNRFPGVPDRFSGSGSGTDFTLKISRVEAEDVGVYYCAQGTSVPFTFGQGTKLEIK
B3: H183/L072 VH K52bS (antibody, name in Kabat numbering, V domains shown)
VH: QVQLVESGGGLVQPGRSLRLSCAASGFTFSNAWMHWVRQAPGKGLEWVAQIKDSGNAYAAYYAPSVKGRFTISRDDSKNSIYLQMNSLKTEDTAVYYCHYVHYASASTVLPAFGVDAWGQGTTVTVSS
VL: DIVMTQSPLSLPVTPGEPASISCQASQELVHMNRNTYLHWYQQKPGQAPRLLIYKVSNRFPGVPDRFSGSGSGTDFTLKISRVEAEDVGVYYCAQGTSVPFTFGQGTKLEIK
B4: H183/L072 VH K52bT (antibody, name in Kabat numbering, V domains shown)
VH: QVQLVESGGGLVQPGRSLRLSCAASGFTFSNAWMHWVRQAPGKGLEWVAQIKDTGNAYAAYYAPSVKGRFTISRDDSKNSIYLQMNSLKTEDTAVYYCHYVHYASASTVLPAFGVDAWGQGTTVTVSS
VL: DIVMTQSPLSLPVTPGEPASISCQASQELVHMNRNTYLHWYQQKPGQAPRLLIYKVSNRFPGVPDRFSGSGSGTDFTLKISRVEAEDVGVYYCAQGTSVPFTFGQGTKLEIK
B5: H183/L072 VH K52bV (antibody, name in Kabat numbering, V domains shown)
VH: QVQLVESGGGLVQPGRSLRLSCAASGFTFSNAWMHWVRQAPGKGLEWVAQIKDVGNAYAAYYAPSVKGRFTISRDDSKNSIYLQMNSLKTEDTAVYYCHYVHYASASTVLPAFGVDAWGQGTTVTVSS
VL: DIVMTQSPLSLPVTPGEPASISCQASQELVHMNRNTYLHWYQQKPGQAPRLLIYKVSNRFPGVPDRFSGSGSGTDFTLKISRVEAEDVGVYYCAQGTSVPFTFGQGTKLEIK
B6: H183/L072 VH K52bW (antibody, name in Kabat numbering, V domains shown)
VH: QVQLVESGGGLVQPGRSLRLSCAASGFTFSNAWMHWVRQAPGKGLEWVAQIKDWGNAYAAYYAPSVKGRFTISRDDSKNSIYLQMNSLKTEDTAVYYCHYVHYASASTVLPAFGVDAWGQGTTVTVSS
VL: DIVMTQSPLSLPVTPGEPASISCQASQELVHMNRNTYLHWYQQKPGQAPRLLIYKVSNRFPGVPDRFSGSGSGTDFTLKISRVEAEDVGVYYCAQGTSVPFTFGQGTKLEIK
B7: H183/L072 VH K52bY (antibody, name in Kabat numbering, V domains shown)
VH: QVQLVESGGGLVQPGRSLRLSCAASGFTFSNAWMHWVRQAPGKGLEWVAQIKDYGNAYAAYYAPSVKGRFTISRDDSKNSIYLQMNSLKTEDTAVYYCHYVHYASASTVLPAFGVDAWGQGTTVTVSS
VL: DIVMTQSPLSLPVTPGEPASISCQASQELVHMNRNTYLHWYQQKPGQAPRLLIYKVSNRFPGVPDRFSGSGSGTDFTLKISRVEAEDVGVYYCAQGTSVPFTFGQGTKLEIK
B8: H183/L072 VH K64A (antibody, name in Kabat numbering, V domains shown)
VH: QVQLVESGGGLVQPGRSLRLSCAASGFTFSNAWMHWVRQAPGKGLEWVAQIKDKGNAYAAYYAPSVAGRFTISRDDSKNSIYLQMNSLKTEDTAVYYCHYVHYASASTVLPAFGVDAWGQGTTVTVSS
VL: DIVMTQSPLSLPVTPGEPASISCQASQELVHMNRNTYLHWYQQKPGQAPRLLIYKVSNRFPGVPDRFSGSGSGTDFTLKISRVEAEDVGVYYCAQGTSVPFTFGQGTKLEIK
B9: H183/L072 VH K64I (antibody, name in Kabat numbering, V domains shown)
VH: QVQLVESGGGLVQPGRSLRLSCAASGFTFSNAWMHWVRQAPGKGLEWVAQIKDKGNAYAAYYAPSVIGRFTISRDDSKNSIYLQMNSLKTEDTAVYYCHYVHYASASTVLPAFGVDAWGQGTTVTVSS
VL: DIVMTQSPLSLPVTPGEPASISCQASQELVHMNRNTYLHWYQQKPGQAPRLLIYKVSNRFPGVPDRFSGSGSGTDFTLKISRVEAEDVGVYYCAQGTSVPFTFGQGTKLEIK
B10: H183/L072 VH K64L (antibody, name in Kabat numbering, V domains shown)
VH: QVQLVESGGGLVQPGRSLRLSCAASGFTFSNAWMHWVRQAPGKGLEWVAQIKDKGNAYAAYYAPSVLGRFTISRDDSKNSIYLQMNSLKTEDTAVYYCHYVHYASASTVLPAFGVDAWGQGTTVTVSS
VL: DIVMTQSPLSLPVTPGEPASISCQASQELVHMNRNTYLHWYQQKPGQAPRLLIYKVSNRFPGVPDRFSGSGSGTDFTLKISRVEAEDVGVYYCAQGTSVPFTFGQGTKLEIK
B11: H183/L072 VH K64M (antibody, name in Kabat numbering, V domains shown)
VH: QVQLVESGGGLVQPGRSLRLSCAASGFTFSNAWMHWVRQAPGKGLEWVAQIKDKGNAYAAYYAPSVMGRFTISRDDSKNSIYLQMNSLKTEDTAVYYCHYVHYASASTVLPAFGVDAWGQGTTVTVSS
VL: DIVMTQSPLSLPVTPGEPASISCQASQELVHMNRNTYLHWYQQKPGQAPRLLIYKVSNRFPGVPDRFSGSGSGTDFTLKISRVEAEDVGVYYCAQGTSVPFTFGQGTKLEIK
B12: H183/L072 VH K64P (antibody, name in Kabat numbering, V domains shown)
VH: QVQLVESGGGLVQPGRSLRLSCAASGFTFSNAWMHWVRQAPGKGLEWVAQIKDKGNAYAAYYAPSVPGRFTISRDDSKNSIYLQMNSLKTEDTAVYYCHYVHYASASTVLPAFGVDAWGQGTTVTVSS
VL: DIVMTQSPLSLPVTPGEPASISCQASQELVHMNRNTYLHWYQQKPGQAPRLLIYKVSNRFPGVPDRFSGSGSGTDFTLKISRVEAEDVGVYYCAQGTSVPFTFGQGTKLEIK
B13: H183/L072 VH L100dA (antibody, name in Kabat numbering, V domains shown)
VH: QVQLVESGGGLVQPGRSLRLSCAASGFTFSNAWMHWVRQAPGKGLEWVAQIKDKGNAYAAYYAPSVKGRFTISRDDSKNSIYLQMNSLKTEDTAVYYCHYVHYASASTVAPAFGVDAWGQGTTVTVSS
VL: DIVMTQSPLSLPVTPGEPASISCQASQELVHMNRNTYLHWYQQKPGQAPRLLIYKVSNRFPGVPDRFSGSGSGTDFTLKISRVEAEDVGVYYCAQGTSVPFTFGQGTKLEIK
B14: H183/L072 VH L100dI (antibody, name in Kabat numbering, V domains shown)
VH: QVQLVESGGGLVQPGRSLRLSCAASGFTFSNAWMHWVRQAPGKGLEWVAQIKDKGNAYAAYYAPSVKGRFTISRDDSKNSIYLQMNSLKTEDTAVYYCHYVHYASASTVIPAFGVDAWGQGTTVTVSS
VL: DIVMTQSPLSLPVTPGEPASISCQASQELVHMNRNTYLHWYQQKPGQAPRLLIYKVSNRFPGVPDRFSGSGSGTDFTLKISRVEAEDVGVYYCAQGTSVPFTFGQGTKLEIK
B15: H183/L072 VH L100dM (antibody, name in Kabat numbering, V domains shown)
VH: QVQLVESGGGLVQPGRSLRLSCAASGFTFSNAWMHWVRQAPGKGLEWVAQIKDKGNAYAAYYAPSVKGRFTISRDDSKNSIYLQMNSLKTEDTAVYYCHYVHYASASTVMPAFGVDAWGQGTTVTVSS
VL: DIVMTQSPLSLPVTPGEPASISCQASQELVHMNRNTYLHWYQQKPGQAPRLLIYKVSNRFPGVPDRFSGSGSGTDFTLKISRVEAEDVGVYYCAQGTSVPFTFGQGTKLEIK
B16: H183/L072 VH L100dP (antibody, name in Kabat numbering, V domains shown)
VH: QVQLVESGGGLVQPGRSLRLSCAASGFTFSNAWMHWVRQAPGKGLEWVAQIKDKGNAYAAYYAPSVKGRFTISRDDSKNSIYLQMNSLKTEDTAVYYCHYVHYASASTVPPAFGVDAWGQGTTVTVSS
VL: DIVMTQSPLSLPVTPGEPASISCQASQELVHMNRNTYLHWYQQKPGQAPRLLIYKVSNRFPGVPDRFSGSGSGTDFTLKISRVEAEDVGVYYCAQGTSVPFTFGQGTKLEIK
B17: H183/L072 VH M34A (antibody, name in Kabat numbering, V domains shown)
VH: QVQLVESGGGLVQPGRSLRLSCAASGFTFSNAWAHWVRQAPGKGLEWVAQIKDKGNAYAAYYAPSVKGRFTISRDDSKNSIYLQMNSLKTEDTAVYYCHYVHYASASTVLPAFGVDAWGQGTTVTVSS
VL: DIVMTQSPLSLPVTPGEPASISCQASQELVHMNRNTYLHWYQQKPGQAPRLLIYKVSNRFPGVPDRFSGSGSGTDFTLKISRVEAEDVGVYYCAQGTSVPFTFGQGTKLEIK
B18: H183/L072 VH M34D (antibody, name in Kabat numbering, V domains shown)
VH: QVQLVESGGGLVQPGRSLRLSCAASGFTFSNAWDHWVRQAPGKGLEWVAQIKDKGNAYAAYYAPSVKGRFTISRDDSKNSIYLQMNSLKTEDTAVYYCHYVHYASASTVLPAFGVDAWGQGTTVTVSS
VL: DIVMTQSPLSLPVTPGEPASISCQASQELVHMNRNTYLHWYQQKPGQAPRLLIYKVSNRFPGVPDRFSGSGSGTDFTLKISRVEAEDVGVYYCAQGTSVPFTFGQGTKLEIK
B19: H183/L072 VH M34E (antibody, name in Kabat numbering, V domains shown)
VH: QVQLVESGGGLVQPGRSLRLSCAASGFTFSNAWEHWVRQAPGKGLEWVAQIKDKGNAYAAYYAPSVKGRFTISRDDSKNSIYLQMNSLKTEDTAVYYCHYVHYASASTVLPAFGVDAWGQGTTVTVSS
VL: DIVMTQSPLSLPVTPGEPASISCQASQELVHMNRNTYLHWYQQKPGQAPRLLIYKVSNRFPGVPDRFSGSGSGTDFTLKISRVEAEDVGVYYCAQGTSVPFTFGQGTKLEIK
B20: H183/L072 VH M34F (antibody, name in Kabat numbering, V domains shown)
VH: QVQLVESGGGLVQPGRSLRLSCAASGFTFSNAWFHWVRQAPGKGLEWVAQIKDKGNAYAAYYAPSVKGRFTISRDDSKNSIYLQMNSLKTEDTAVYYCHYVHYASASTVLPAFGVDAWGQGTTVTVSS
VL: DIVMTQSPLSLPVTPGEPASISCQASQELVHMNRNTYLHWYQQKPGQAPRLLIYKVSNRFPGVPDRFSGSGSGTDFTLKISRVEAEDVGVYYCAQGTSVPFTFGQGTKLEIK

Biological target: T1, Human CD3eg linker
Assay: Biacore SPR, vs template H183/L072

First: B1
Second: B2
The “fold change of affinity” value of the first is lower: 0.7 fold for the first, 1.2 fold for the second.

Compared with B3, B4 is lower in “fold change of affinity” value: 0.7 fold for the first, 0.3 fold for the second.

B5 and B6 are the same in “fold change of affinity” value: 0.6 fold for the first, 0.6 fold for the second.

Compared with B7, B8 is higher in “fold change of affinity” value: 0.7 fold for the first, 1 fold for the second.

First: B9
Second: B10
The “fold change of affinity” value of the first is lower: 1 fold for the first, 1.1 fold for the second.

First: B11
Second: B12
The “fold change of affinity” value of the first is lower: 1.1 fold for the first, 1.6 fold for the second.

B13 and B14 are the same in “fold change of affinity” value: 1.2 fold for the first, 1.2 fold for the second.

Going from B15 to B16, the “fold change of affinity” value rises from 1 fold to 1.4 fold.

B17 and B18 are the same in “fold change of affinity” value: 0 fold for the first, 0 fold for the second.

Compared with B19, B20 is higher in “fold change of affinity” value: 0 fold for the first, 0.1 fold for the second.
